These results are taken from patent publication US20210179698A1 (AstraZeneca / MedImmune, published 2021).

Numbering of substitutions follows the chain as printed.

One assay has as its target rat α-syn (rat, UniProt P37377 1-140). The assay is described as follows: direct binding HTRF assay. A general note: TR-FRET usually uses a lanthanide donor and a delayed reading to cut background.
A further assay has as its target T1, 96-140 (human, UniProt P37840).
T1 construct: residues 96-140, C-terminal region only; coated on ELISA wells; also called α-syn truncate 96-140; C-terminal region only
The assay is described as follows: ELISA on coated α-syn truncates (1 µg/ml coat, 1 µg/ml antibody), anti-human IgG-HRP detection. (ELISA stands for enzyme-linked immunosorbent assay.)

The target in assay [1] is human alpha-synuclein (recombinant) (human, UniProt P37840 1-140). The assay is described as above.
Description: (§1) Briefly, one microgram per milliliter of each truncate was coated to a microtitre well overnight at 4° C. […] Following 1 h incubation and washing the bound antibody was detected by addition of an anti-human IgG conjugated to either HRP or Eu³⁺. Subsequent to incubation and washing, the appropriate detection substrate was added (TMB or DELFIA Enhancer solution respectively) and the plate read on a microtitre plate reader.
Another assay addresses T2, ΔNAC (human, UniProt P37840).
T2 construct: NAC region deleted; coated on ELISA wells; also called ANAC; α-syn with NAC region deleted
The assay is described as above.

In the next assay the target is T3, 61-140 (human, UniProt P37840).
T3 construct: residues 61-140, NAC plus C-terminal region; coated on ELISA wells; also called α-syn truncate 61-140; aa61-140
The assay is described as above.

The target of a further assay is T4, 1-60 (human, UniProt P37840).
T4 construct: residues 1-60, N-terminal region only; coated on ELISA wells; also called α-syn truncate 1-60; aa1-60
The assay is described as follows: ELISA on coated α-syn truncates, anti-human IgG-HRP detection.

Another assay deals with T5, NCAP (human, UniProt P37840-2).
T5 construct: alternatively spliced form missing amino acids 103-129; coated on ELISA wells; also called alternatively spliced form of α-syn missing amino acids 103-129
Described as above.

The target in the next assay is T6, 1-95 (human, UniProt P37840).
T6 construct: residues 1-95, N-terminal and NAC regions; coated on ELISA wells; also called α-syn truncate 1-95; aa1-95
The assay is described as above.

For assay [2], the target named is T7, human gamma-synuclein (recombinant) (human, UniProt O76070 1-127).
T7 construct: also called γ-syn; γ-synuclein
The assay is described as follows: HTRF epitope competition: unlabelled synuclein titrated against biotinylated human α-syn for binding to aslo0543.
Description: (§2) IC₅₀ values were determined by curve fitting the data to a four parameter logistic equation using PRISM 6® software (Graphpad). […] For the negative control, the antibody test sample was replaced with an isotype control antibody or buffer only.

The target in assay [3] is T8, human beta-synuclein (recombinant) (human, UniProt Q16143 1-134).
T8 construct: also called β-syn; β-synuclein
Described as above.
Description: as §2

The target of assay [4] is native, endogenously expressed intracellular human α-syn in SH-SY5Y neuroblastoma cells (human, UniProt P37840 1-140). The assay is described as follows: flow cytometry on fixed, permeabilised SH-SY5Y cells, anti-human IgG-FITC. For orientation: In flow cytometry, cells or beads pass a laser one at a time.
Description: After extensive washes, bound antibody was detected by incubation with an anti-human or anti-mouse IgG-FITC secondary antibody. Following further washes the cells were analyzed with a FACS Canto II apparatus (Becton Dickinson, Franklin Lakes, N.J.) and data analysis was performed using FlowJo Software (Tree Star, Ashland, Oreg.).
For assay [5], the target named is disease relevant pathological forms of human α-syn in Parkinson's disease brain tissue (human, UniProt P37840 1-140). The assay is described as follows: immunohistochemistry of Parkinson's disease brain tissue.
For a further assay, the target named is aggregated human α-syn (human, UniProt P37840 1-140). The assay is described as follows: DELFIA pair-wise capture ELISA: mouse IgG1 version of the antibody as capture, human IgG1 TM version of the same antibody as detection, anti-human IgG-Eu.
In assay [6] the target is T7, human gamma-synuclein (recombinant). The assay is described as follows: HTRF epitope competition: unlabelled synuclein titrated against biotinylated human α-syn for binding to aslo0452 ngl-3.
Description: as §2
Assay [7] concerns the target T8, human beta-synuclein (recombinant). The description is as above.
Description: as §2

Description for 1-60: as §1
Description for 1-95: as §1
Description for 61-140: as §1
Description for 96-140: as §1
Description for NCAP: as §1
Description for aggregated human α-syn: Subsequent to incubation and washing, the appropriate detection substrate was added (TMB or DELFIA Enhancer solution respectively) and the plate read on a microtitre plate reader.
Description for ΔNAC: as §1

B1: aslo0543 (antibody, human IgG1, lambda, V domains shown)
VH: not shown
VL: QAVLTQPASLSASPGASASLTCTLRSSGDFSRYRIYWYQQKPGSPPQYLLRYKSDADKHQGSGVPSRFSGSKDASANAGILLISGLQSEDEADYYCMVWSSGAWYFGGGTKLTVLG
notes: also called aslo0543 IgG
For the molecule B1, the binding result with rat α-syn is “binds”; with 96-140, “binds”; in [1], “binds”; with ΔNAC it was “binds”; with 61-140 it was “binds”; with 1-60, “no binding (tested: 1 µg/ml (single concentration))”. For the same molecule, the binding result in the assay with NCAP is given as “no binding (tested: 1 µg/ml (single concentration))”; with 1-95, “no binding (tested: 1 µg/ml (single concentration))”; in assay [2] it was “no binding”; in [3], “no binding”; in [4] it was “binds”; in assay [5], “binds”. In addition, the binding result in the assay with aggregated human α-syn is on record as “binds”.

B2: aslo0452 ngl-3 (antibody, human IgG1, lambda, V domains shown)
VH: EVQLLESGGGLVQPGGSLRLSCAASGFTFSSYAMSWVRQAPGKGLEWVSSISHLGGSTYYADSVKGRFTISRDNSKNTLYLQMNSLRAEDTAVYYCAGGANHGKYYYGMDKWGQGTTVTVSS
VL: B1 VL with S27G, G28A, D29P, F30L, S31P, R32K, S100D, S101H, A103V
notes: also called aslo0452 ngl-3 IgG; aslo0452-ngl3-hIgG1TM
For B2, the binding result with 96-140 is “binds”; with ΔNAC, “binds”; in [6] it was “no binding”; in assay [7] it was “no binding”; with 1-60, “no binding (tested: 1 µg/ml (single concentration))”.
